This assay addresses Histidine-tagged rat N-WASP (rat, UniProt O08816 1-501). As to the kind of experiment: pull-down.

Histidine-tagged rat N-WASP, sequence (O08816 whole entry): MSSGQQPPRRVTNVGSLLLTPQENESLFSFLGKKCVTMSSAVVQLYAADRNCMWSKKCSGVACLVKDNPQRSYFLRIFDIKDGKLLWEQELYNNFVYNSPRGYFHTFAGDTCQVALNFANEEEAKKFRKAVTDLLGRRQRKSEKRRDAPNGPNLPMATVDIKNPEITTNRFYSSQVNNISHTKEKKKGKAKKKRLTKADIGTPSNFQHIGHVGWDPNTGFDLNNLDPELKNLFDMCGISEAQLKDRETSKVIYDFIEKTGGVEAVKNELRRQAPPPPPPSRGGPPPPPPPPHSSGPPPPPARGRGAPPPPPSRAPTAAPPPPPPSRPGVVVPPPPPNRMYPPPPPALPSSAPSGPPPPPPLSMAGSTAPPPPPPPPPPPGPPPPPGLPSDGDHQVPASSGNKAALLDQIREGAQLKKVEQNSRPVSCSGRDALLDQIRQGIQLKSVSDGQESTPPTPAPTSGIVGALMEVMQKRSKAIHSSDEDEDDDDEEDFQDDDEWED

B1: Recombinant VirG-α1 protein (Thr53–Arg759 of VirG polypeptide) (domain or fragment, S. flexneri, UniProt Q7BCK4 53-759, looked up)
chain: TPLSGTQELHFSEDNYEKLLTPVDGLSPLGAGEDGMDAWYITSSNPSHASRTKLRINSDIMISAGHGGAGDNNDGNSCGGNGGDSITGSDLSIINQGMILGGSGGSGADHNGDGGEAVTGDNLFIINGEIISGGHGGDSYSDSDGGNGGDAVTGVNLPIINKGTISGGNGGNNYGEGDGGNGGDAITGSSLSVINKGTFAGGNGGAAYGYGYDGYGGNAITGDNLSVINNGAILGGNGGHWGDAINGSNMTIANSGYIISGKEDDGTQNVAGNAIHITGGNNSLILHEGSVITGDVQVNNSSILKIINNDYTGTTPTIEGDLCAGDCTTVSLSGNKFTVSGDVSFGENSSLNLAGISSLEASGNMSFGNNVKVEAIINNWAQKDYKLLSADKGITGFSVSNISIINPLLTTGAIDYTKSYISDQNKLIYGLSWNDTDGDSHGEFNLKENAELTVSTILADNLSHHNINSWDGKSLTKSGEGTLILAEKNTYSGFTNINAGILKMGTVEAMTRTAGVIVNKGATLNFSGMNQTVNTLLNSGTVLINNINAPFLPDPVIVTGNMTLEKNGHVILNNSSSNVGQTYVQKGNWHGKGGILSLGAVLGNDNSKTDRLEIAGHASGITYVAVTNEGGSGDKTLEGVQIISTDSSDKNAFIQKGRIVAGSYDYRLKQGTVSGLNTNKWYLTSQMDNQESKQMSNQESTQMSSRR
As for B1, the “fold change of coprecipitated amount with Cdc42-G12V (GTPγS) against without” value was 1.2 fold.

Values taken from publication PMC2213524 (The Journal of Experimental Medicine, 2000).
